Results from PMC7035355.

Biological target: FBW7 (UniProt Q969H0)
Assay: co-immunoprecipitation, immunoblot
Conditions: reference: wild type Mcl-1; sites S159

Mcl-1 (from UniProt Q07820) S159A
binding against the reference: weaker
